{"source": "paper PMC9313502", "about": "(Advanced Science, 2022)", "molecular_target": "Biotinylated recombinant human TNF‐α (human, UniProt P01375 77-233, biotin on primary amines (lysine conjugation, NHS-PEG4-biotin))", "sequence (P01375 77-233)": "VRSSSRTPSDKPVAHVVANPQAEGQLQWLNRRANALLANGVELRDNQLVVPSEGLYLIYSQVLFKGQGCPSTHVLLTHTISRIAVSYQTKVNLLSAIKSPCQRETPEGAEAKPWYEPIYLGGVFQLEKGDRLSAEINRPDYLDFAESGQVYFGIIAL", "experiment": "ELISA; sparsely biotinylated hTNF-α (7.5 nM) held on avidin-coated 96-well plates; hTNFR1-ECD-HRP in solution, read at 450 nm with TMB; apparent EC50", "conditions": "both partners purified", "data": [{"binder": "HRP‐tagged human TNF‐α receptor 1 extracellular domain (receptor, conjugated to horse‐radish peroxidase (HRP Conjugation Kit, Proteintech PK20001)) RDSVCPQGKYIHPQNNSICCTKCHKGTYLYNDCPGPGQDTDCRECESGSFTASENHLRHCLSCSKCRKEMGQVEISSCTVDRDTVCGCRKNQYRHYWSENLFQCFNCSLCLNGTVHLSCQEKQNTVCTCHAGFFLRENECVSCSNCKKSLECTKLCLPQIEN", "values": [{"measurement": "EC50", "result": 4.6, "unit": "nM"}]}]}
